How the values were obtained:
[1] = target: Rpk4 monomer (with Avi and hexa-histidine tags) (SARS-CoV-2 (Wuhan-Hu-1))
[2] = target: Rpk9 monomer (with Avi and hexa-histidine tags) (SARS-CoV-2 (Wuhan-Hu-1))

CR3022 IgG (antibody)
fold decrease of affinity against wild-type RBD [1]: < 3.5 fold
fold decrease of affinity against wild-type RBD [2]: < 3.5 fold

From US20250002907A1
